Data from US20260007756A1, “COMPOUND AND USE THEREOF” (COHERENT BIOPHARMA (SUZHOU) LIMITED, priority 2022, published 2026).
pIC50: −log10 of the molar value. Values after ≈ are worked out from the molar mass of the structure shown. Read-outs that look alike come from different tables or passages of the source.

Columns and labels:
LNCaP [1] = experiment: Expansion inhibition of tumor cells (Example 10, CCK-8); type: cell-based; details: Homo sapiens, LNCap (PSMA overexpression), 72 h
Method: Samples were serially diluted with medium (serially 5-fold diluted from 10 μM) to 9 concentrations. […] Negative and blank controls were set.
(§1) A CCK-8 developing solution was added at 10 μL/well (10% of the liquid volume in the wells). The plates were incubated at 37° C. for a proper time (the OD value was controlled within the range of 1.0-2.5 as possible). The plate covers were removed, and the 96-well plates were loaded on a microplate reader (Molecular Devices SpectraMax iD5) to read the measurement at 450 nm.

Solubility study in PBS = type: physicochemical; details: aqueous buffer, thermodynamic from solid; PBS (pH 7.2 to 7.4); read-out: Solubility, concentration
Method: The mixture was vortexed for 2 min until the solid was dissolved. The solubility was calculated as: C=m/V, C: concentration, m: sample weight, V: PBS total volume.

Plasma stability study 1 = type: in vitro ADME; details: mouse plasma, 37° C.
Method: Procedures: The conjugate compounds were dissolved in acetonitrile-water (1:1) or acetonitrile-water (1:1, containing 0.1% TFA) to prepare 1 mg/mL stock solutions; 10 μL of the 1 mg/mL stock solution was added to 90 μL of plasma, and the mixture was gently mixed well. The plasma drug samples were shaken and incubated in a 37° C. thermostat for 0, 0.5, 1, 2, 4, 6, or 24 h; at the time points, the samples were taken out and 300 μL of methanol solution (containing 10 ng/ml of terfenadine) was added for protein precipitation; the mixture was centrifuged (12 min, 4° C., 12000 rpm) and the supernatant was collected, and preserved in a −80° C. refrigerator; after collection, the samples were loaded for LC-MS analysis.

22RV1 = 22RV1 (PSMA overexpression), 72 h, CCK-8
Method: (§2) Major reagents: 1640 folic acid-free medium, fetal bovine serum, penicillin-streptomycin solution, L-glutamine, and CCK8.
(§3) Cells were prepared in advance, trypsinized, collected, counted, diluted to 2×10^4 cells/mL in a complete cell culture medium, and plated in 96-well plates. The diluted cell suspension was added at 100 μL/well, and negative and blank control wells were set on each plate. The 96-well plates with the added cells were incubated overnight at 37° C. in a 5% CO2 incubator.
(§4) Samples were serially diluted with medium (serially 5-fold diluted from 10 μM) to 9 concentrations. The medium in the plates was discarded, and the drug solutions were added at 100 μL per well to a 96-well plate in triplicate. Negative and blank controls were set. The plates were incubated at 37° C. for 72 h in a 5% CO2 incubator.
as §1
(§5) Four-parameter curves were fitted using GraphPad Prism 8.0.2 to give IC50 values.

293T-PSMA = details: 72 h, CCK-8
Method: as §2, §3, §4, §1, §5

C4-2 = C4-2 (PSMA overexpression), 72 h, CCK-8
Method: as §2, §3, §4, §1, §5

LNCaP [2] = details: LNCap (PSMA overexpression), 72 h, CCK-8
Method: as §2, §3, §4, §1, §5

MDA-MB-231-FOLR1 = details: MDA-MB-231-FOLR1, 72 h, CCK-8
Method: as §2, §3, §4, §1, §5

MDA-MB-231-PSMA = details: 72 h, CCK-8
Method: as §2, §3, §4, §1, §5

[3] = test system: human prostate cancer 22RV1 cell subcutaneous xenograft tumor; experiment: Pharmacodynamic assessment, 22RV1 xenograft model; type: in vivo
From the text: Objective: Pre-clinical pharmacodynamic study of compounds for treating BALB/c nude mouse model with 22RV1 cell subcutaneous xenograft tumor (overexpressing PSMA).
Procedures: 22RV1 tumor mass was grafted subcutaneously at the right back of the mice, and the mice were randomized after the mean tumor volume was 150 mm^3. After administration, the animals were monitored daily for health conditions and death, and the routine examinations included observation of the effect on tumor growth and the effect of the treatment on the daily performance of the animals, such as behavioral activities, food and water intake, weight changes (measured once every other day), appearance, or other abnormal conditions. Whether the tumor growth was inhibited or delayed or the tumor was cured was also observed. The tumor volume was measured periodically. The tumor volume was calculated using the following formula: V=1/2×(a×b^2), where a and b denote the long diameter and short diameter of the tumor, respectively.

[4] = test system: human prostate cancer C4-2 cell subcutaneous xenograft tumor; experiment: Pharmacodynamic assessment, C4-2 xenograft model; type: in vivo, NCG mouse; details: 12.5 mg/kg i.v biw×3, day 23 after grouping
From the text: Objective: Pre-clinical assessment of the efficacy of compounds for treating NCG mouse model with C4-2 cell subcutaneous xenograft tumor (overexpressing PSMA).
Procedures: C4-2 cells were subcutaneously grafted at the right back of the mice, and the mice were randomized when the mean tumor volume reached 100-150 mm^3. After the administration, the routine monitoring included the effect on tumor growth and the effect of treatment on the normal behavior of the animals, specifically the activity, food and water intake, weight gain or loss, the eyes, the hair, and other abnormal conditions. Clinical symptoms observed during the study were recorded in the raw data. After the administration was started, the body weight and tumor size of the mice were measured periodically. The tumor volume was calculated using the following formula: V=1/2×(a×b^2), where a and b denote the long diameter and short diameter of the tumor, respectively.

cathepsin B-human liver = cathepsin B-human liver (Homo sapiens, UniProt P07858); experiment: Cathepsin B cleavage study (HPLC); type: in vitro ADME; parameters: cathepsin B-human liver (source: Sigma); purchased Sigma; host or cells: human liver (tissue-derived, as the product name says); details: 37° C.
Method: Procedures: The conjugate compounds were dissolved in acetonitrile-water (1:1, containing 0.1% TFA) to prepare 1 mg/mL stock solutions; 30 μL of the 1 mg/mL stock solution was added to 570 μL of 50 mM NaOAc (containing 1 mM EDTA and 10 mM cysteine), and the mixture was mixed well; 7 μL of cathepsin B (0.05 U/μL) was added, and the mixture was gently mixed evenly; the reaction system was transferred into a 37° C. thermostat for 0, 1, 2, 4, or 8 h of incubation; samples were taken at each time point for HPLC analysis.

[5] = 12.5 mg/kg iv biw×3, day 31 after grouping

## Cc1ncsc1-c1ccc(CNC(=O)C2CC(O)CN2C(=O)C(NC(=O)COCC(=O)NC2(C(=O)NCCCn3cc(-c4ccc(OC(F)(F)F)cc4)c4cc(CN5CCN(Cc6c(Cl)cccc6Cl)CC5)ccc43)CCNCC2)C(C)(C)C)cc1 (stereo not shown) [CR202CC]
LNCaP [1]
  pIC50: 9.52

## CC[C@@H]1C(=O)N(C)c2cnc(Nc3ccc(-c4cn(C5CCC(N(CCOCCC#Cc6cccc7c6CN(C6CCC(=O)NC6=O)C7=O)C(=O)OCc6ccc(NC(=O)[C@H](CCCNC(N)=O)NC(=O)[C@H](Cc7ccccc7)NC(=O)CCCCCN7C(=O)CC(SC[C@H](NC(=O)[C@H](CCCCN)NC(=O)[C@H](CC(=O)O)NC(=O)[C@H](CC(=O)O)NC(=O)Cc8ccc(CNC(=O)NCCCC[C@H](NC(=O)N[C@@H](CCC(=O)O)C(=O)O)C(=O)O)cc8)C(=O)N[C@@H](CCCCNC(=O)CC[C@H](NC(=O)c8ccc(NCc9cnc%10[nH]c(N)nc(=O)c%10n9)cc8)C(=O)O)C(N)=O)C7=O)cc6)CC5)nn4)cc3OC)nc2N1C1CCCC1 (stereo partly shown) [CR20293]
Solubility study in PBS
  solubility at 2 min: 20.6 mg/mL (≈ 6.75 mM)
Plasma stability study 1; 0 h
  CR20274 release rate of compounds in plasma stability study: 0.00%
  Principal component residue of compounds in plasma stability study: 83.13%
Plasma stability study 1; 0.5 h
  CR20274 release rate of compounds in plasma stability study: 0.17%
Plasma stability study 1; 0.5 h, read-out: Principal component residue of compounds in plasma stability study
  remaining at 0.5 h, 100 μg/mL: 75.6%
Plasma stability study 1; 1 h
  CR20274 release rate of compounds in plasma stability study: 0.32%
Plasma stability study 1; 1 h, read-out: Principal component residue of compounds in plasma stability study
  remaining at 1 h, 100 μg/mL: 75.8%
Plasma stability study 1; 2 h
  CR20274 release rate of compounds in plasma stability study: 0.52%
Plasma stability study 1; 2 h, read-out: Principal component residue of compounds in plasma stability study
  remaining at 2 h, 100 μg/mL: 67.8%
Plasma stability study 1; 4 h
  CR20274 release rate of compounds in plasma stability study: 0.67%
Plasma stability study 1; 4 h, read-out: Principal component residue of compounds in plasma stability study
  remaining at 4 h, 100 μg/mL: 69.8%
Plasma stability study 1; 6 h
  CR20274 release rate of compounds in plasma stability study: 0.95%
Plasma stability study 1; 6 h, read-out: Principal component residue of compounds in plasma stability study
  remaining at 6 h, 100 μg/mL: 70.5%
Plasma stability study 1; 24 h
  CR20274 release rate of compounds in plasma stability study: 3.38%
Plasma stability study 1; 24 h, read-out: Principal component residue of compounds in plasma stability study
  remaining at 24 h, 100 μg/mL: 45.4%
22RV1
  pIC50: 7.78
293T-PSMA
  pIC50: 5.49
C4-2
  pIC50: 7.11
LNCaP [2]
  pIC50: 7.42
MDA-MB-231-FOLR1
  pIC50: 7.03
MDA-MB-231-PSMA
  pIC50: 7.15
[3]; [5]
  Mean tumor volume: 46.32 mm^3
  TGI: 97.51%
[3]; tumor-bearing BALB/c nude mice, during the study
  Tolerability (body weight, death): well tolerated
[4]
  Mean tumor volume: 778.70 mm^3
  TGI: 55.47%
Cathepsin B-human liver; 0 h
  CR20274 release rate of conjugate compounds after cleavage: 0%
  Principal component residue of conjugate compounds after cleavage: 100%
Cathepsin B-human liver; 1 h
  CR20274 release rate of conjugate compounds after cleavage: 17%
  Principal component residue of conjugate compounds after cleavage: 76%
Cathepsin B-human liver; 2 h
  CR20274 release rate of conjugate compounds after cleavage: 38%
  Principal component residue of conjugate compounds after cleavage: 46%
Cathepsin B-human liver; 4 h
  CR20274 release rate of conjugate compounds after cleavage: 59%
  Principal component residue of conjugate compounds after cleavage: 27%
Cathepsin B-human liver; 8 h
  CR20274 release rate of conjugate compounds after cleavage: 64%
  Principal component residue of conjugate compounds after cleavage: 7%
